From the supplement of paper PMC10266784 come the findings set out here.

The labels stand for the following.
B1: library; numbered along this chain (parent)
chain: MAAAAAAAAEQQSSNGPVKKSMREKAVERRSVNKEHNSNFKAGYIPIDEDRLHKTGLRGRKGNLAICVIILLFILAVINLIITLVIWAVIRIGPNGCDSMEFHESGLLRFKQVSDMGVIHPLYKSTVGGRRNENLVITGNNQPIVFQQGTTKLSVENNKTSITSDIGMQFFDPRTQNILFSTDYETHEFHLPSGVKSLNVQKASTERITSNATSDLNIKVDGRAIVRGNEGVFIMGKTIEFHMGGNMELKAENSIILNGSVMVSTTRLPSSSSGDQLGSGDWVRYKLCMCADGTLFKVQVTSQNMGCQISDNPCGNTH

The variants in this data set derive from B1. The data set can be described thus: SGCB cell-surface expression functional score (HA stain, bin4 vs bin1, normalised to synonymous) (log10 ratio); higher = more cell-surface SGCB (functional). In a few lines:
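Human beta-sarcoglycan, tagged with HA and fused to YFP, was built into codon-saturation libraries and delivered by lentivirus at MOI <0.1 into HEK293 cells that stably express alpha-, gamma- and delta-sarcoglycan. After 72 hours, YFP-positive cells were sorted and grown for 5–7 days, then stained on ice with Alexa Fluor 647 anti-HA, fixed, sorted into four 5% intensity bins and amplicon-sequenced. Each variant's functional score is the log ratio of its frequency in the highest bin to that in the lowest bin, taken as the median across codons and transductions. Transductions were done in duplicate, and synonymous variants were scaled per section to mean 0, SD 0.5.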
For MAAAAAAAAEQQSSNGPVKKSMREKAVERRSVNKEHNSNFKAGYIPIDEDRLHKTGLRGRKGNLAICVIILLFILAVINLIITLVIWAVIRIGPNGCDSMEFHESGLLRFKQVSDMGVIHPLYKSTVGGRRNENLVITGNNQPIVFQQGTTKLSVENNKTSITSDIGMQFFDPRTQNILFSTDYETHEFHLPSGVKSLNVQKASTERITSNATSDLNIKVDGMAIVRGNEGVFIMGKTIEFHMGGNMELKAENSIILNGSVMVSTTRLPSSSSGDQLGSGDWVRYKLCMCADGTLFKVQVTSQNMGCQISDNPCGNTH [R223M], the “SGCB cell-surface expression functional score (log10)” value was 0.82.
Consider MAAAAAAAAEQQSSNGPVKKSMREKAVERRSVNKEHNSNFKAGYIPIDEDRLHKTGLRGRKGNLAICVIILLFILAVINLIITLVIWAVIRIGPNGCDSMEFHESGLLRFKQVSDMGVIHPLYKSTVGGRRNENLVITGNNQPIVFQQGTTKLSVENNKTSITSDIGMQFFDPRTQNILFSTDYETHEFHLPSGVKSLNVQKASTERITSNATSDLNIKVDGYAIVRGNEGVFIMGKTIEFHMGGNMELKAENSIILNGSVMVSTTRLPSSSSGDQLGSGDWVRYKLCMCADGTLFKVQVTSQNMGCQISDNPCGNTH [R223Y], for which the “SGCB cell-surface expression functional score (log10)” value was 0.77.
For MAAAAAAAAEQQSSNGPVKKSMREKAVERRSVNKEHNSNFKAGYIPIDEDRLHKTGLRGRKGNLAICVIILLFILAVINLIITLVIWAVIRIGPNGCDSMEFHESGLLRFKQVSDMGVIHPLYKSTVGGRRNENLVITGNNQPIVFQQGTTKLSVENNKTSITSDIGMQFFDPRTQNILFSTDYETHEFHLPSGVKSLNVQKASTERITSNATSDLNIKVDGEAIVRGNEGVFIMGKTIEFHMGGNMELKAENSIILNGSVMVSTTRLPSSSSGDQLGSGDWVRYKLCMCADGTLFKVQVTSQNMGCQISDNPCGNTH [R223E], the “SGCB cell-surface expression functional score (log10)” value amounted to 0.43.
In the case of MAAAAAAAAEQQSSNGPVKKSMREKAVERRSVNKEHNSNFKAGYIPIDEDRLHKTGLRGRKGNLAICVIILLFILAVINLIITLVIWAVIRIGPNGCDSMEFHESGLLRFKQVSDMGVIHPLYKSTVGGRRNENLVITGNNQPIVFQQGTTKLSVENNKTSITSDIGMQFFDPRTQNILFSTDYETHEFHLPSGVKSLNVQKASTERITSNATSDLNIKVDGGAIVRGNEGVFIMGKTIEFHMGGNMELKAENSIILNGSVMVSTTRLPSSSSGDQLGSGDWVRYKLCMCADGTLFKVQVTSQNMGCQISDNPCGNTH [R223G] it was 0.12.
On to MAAAAAAAAEQQSSNGPVKKSMREKAVERRSVNKEHNSNFKAGYIPIDEDRLHKTGLRGRKGNLAICVIILLFILAVINLIITLVIWAVIRIGPNGCDSMEFHESGLLRFKQVSDMGVIHPLYKSTVGGRRNENLVITGNNQPIVFQQGTTKLSVENNKTSITSDIGMQFFDPRTQNILFSTDYETHEFHLPSGVKSLNVQKASTERITSNATSDLNIKVDGPAIVRGNEGVFIMGKTIEFHMGGNMELKAENSIILNGSVMVSTTRLPSSSSGDQLGSGDWVRYKLCMCADGTLFKVQVTSQNMGCQISDNPCGNTH [R223P], for which the “SGCB cell-surface expression functional score (log10)” value worked out at 0.58.
Turning to MAAAAAAAAEQQSSNGPVKKSMREKAVERRSVNKEHNSNFKAGYIPIDEDRLHKTGLRGRKGNLAICVIILLFILAVINLIITLVIWAVIRIGPNGCDSMEFHESGLLRFKQVSDMGVIHPLYKSTVGGRRNENLVITGNNQPIVFQQGTTKLSVENNKTSITSDIGMQFFDPRTQNILFSTDYETHEFHLPSGVKSLNVQKASTERITSNATSDLNIKVDGVAIVRGNEGVFIMGKTIEFHMGGNMELKAENSIILNGSVMVSTTRLPSSSSGDQLGSGDWVRYKLCMCADGTLFKVQVTSQNMGCQISDNPCGNTH [R223V], the “SGCB cell-surface expression functional score (log10)” value was -0.13.
As to MAAAAAAAAEQQSSNGPVKKSMREKAVERRSVNKEHNSNFKAGYIPIDEDRLHKTGLRGRKGNLAICVIILLFILAVINLIITLVIWAVIRIGPNGCDSMEFHESGLLRFKQVSDMGVIHPLYKSTVGGRRNENLVITGNNQPIVFQQGTTKLSVENNKTSITSDIGMQFFDPRTQNILFSTDYETHEFHLPSGVKSLNVQKASTERITSNATSDLNIKVDGNAIVRGNEGVFIMGKTIEFHMGGNMELKAENSIILNGSVMVSTTRLPSSSSGDQLGSGDWVRYKLCMCADGTLFKVQVTSQNMGCQISDNPCGNTH [R223N], the “SGCB cell-surface expression functional score (log10)” value was 0.66.
For the variant MAAAAAAAAEQQSSNGPVKKSMREKAVERRSVNKEHNSNFKAGYIPIDEDRLHKTGLRGRKGNLAICVIILLFILAVINLIITLVIWAVIRIGPNGCDSMEFHESGLLRFKQVSDMGVIHPLYKSTVGGRRNENLVITGNNQPIVFQQGTTKLSVENNKTSITSDIGMQFFDPRTQNILFSTDYETHEFHLPSGVKSLNVQKASTERITSNATSDLNIKVDGDAIVRGNEGVFIMGKTIEFHMGGNMELKAENSIILNGSVMVSTTRLPSSSSGDQLGSGDWVRYKLCMCADGTLFKVQVTSQNMGCQISDNPCGNTH [R223D], the “SGCB cell-surface expression functional score (log10)” value is 0.48.
For the variant MAAAAAAAAEQQSSNGPVKKSMREKAVERRSVNKEHNSNFKAGYIPIDEDRLHKTGLRGRKGNLAICVIILLFILAVINLIITLVIWAVIRIGPNGCDSMEFHESGLLRFKQVSDMGVIHPLYKSTVGGRRNENLVITGNNQPIVFQQGTTKLSVENNKTSITSDIGMQFFDPRTQNILFSTDYETHEFHLPSGVKSLNVQKASTERITSNATSDLNIKVDGCAIVRGNEGVFIMGKTIEFHMGGNMELKAENSIILNGSVMVSTTRLPSSSSGDQLGSGDWVRYKLCMCADGTLFKVQVTSQNMGCQISDNPCGNTH [R223C], the “SGCB cell-surface expression functional score (log10)” value is 0.4.
